System: MS2 coat protein
Assay: apparent KD of MS2 coat protein; higher = weaker reporter binding
Details: Eterna round: R107
Summary of the method: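 Illumina sequencing clusters served as templates for on-chip transcription of the designed RNA switches. SNAP-549-labelled MS2 coat protein was then titrated in twofold steps from 0.7 or 1.5 nM to 3 µM, allowing 0.8–1.5 h per step at first and 10–20 min per step later. The buffer held 100 mM Tris-HCl pH 7.5, 80 mM KCl and 4 mM MgCl2, without or with constant ligand. Apparent KD is the median per design of normalised cluster binding-curve fits.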

[1] = input ligand: theophylline 20 uM
[2] = input ligand: tryptophan 2.4 mM
[3] = input ligand: theophylline 2 mM

Row | Sequence | apparent KD of MS2 coat protein (input ligand: arginine 13.2 mM) | apparent KD of MS2 coat protein [1] | apparent KD of MS2 coat protein [2] | apparent KD of MS2 coat protein (input ligand: none) | apparent KD of MS2 coat protein [3]
1 | UUUGCACAUGAGGAUCACCCAUGUACAGAUACCAGCCUCAUCUACGGCCCUUGGCAGCUGAGACAAUGGUGACGUGACGGGCUUU [Erqugere] | 13 nM | 14.4 nM | 13.2 nM |  | 
2 | CGCCGAGAGGGAAGGAGCGCGAUAACAUAACAUGAGGAUCACCCAUGUAAGAAAUUAAUCAUGCAGGUAGGUCGCCCAAGCGGCG [Same State Arginine B GF 3] | 15 nM | 23.8 nM | 14.9 nM | 15.1 nM | 19.4 nM
3 | UGUACCAUGUCGGCCGCCACUCAUGAUAAACCUGAGGAUCACCCUGGUAGCGUCAAAGACGCUAUGAGGACCGGGACAUGGUACU [TryBS Zipper 2] | 29.7 nM | 35.2 nM | 20.5 nM | 24.4 nM | 33 nM
4 | GUUGGACUUUCGGCCGCCACUGAGAGAGUCGUGUGAACAUGAGGAUCACCCAUGUAAUAUAUAUACAGGACCGGGAGGGUUGUAA [4.N] | 8.94 nM | 22.2 nM | 11.3 nM | 11.3 nM | 19.7 nM
5 | AGAUUCGACACGGCCGCCACUUUCAGUGGCUGGUGUCAUGGUGCACAUGAGGAUCACCCAUGUGGAAGGACCGGGUGUUGAGUCU [XTryp B #26] | 12.3 nM | 21.8 nM |  |  | 17.2 nM
6 | GCGUUGGCCACGGCCGCCACUCAGGUACCGCGCGUAGUGAACUUACAUGAGGAUCACCCAUGUCUGAGGACCGGGUGGCCGCCAC [theeternabot_sameState_MS2_Trp_B_27] | 31.7 nM | 70.3 nM |  |  | 46.1 nM
7 | ACAUGAGGAUCACCCAUGUCAUGAGGUUCACGAGGACCGGUACGGCCGCCACUCGACAUGAGGGUCACCCGUGAACGGAACACCC [kpmullin] | 14.7 nM | 23.6 nM |  |  | 17.7 nM
8 | GCAUCCUAGUCGGCCGCCACUGCAAUUGUAGUACUGCUACAUGAACAUGAGGAUCACCCAUGUAGCAGGACCGGGACUAGGAUGC [(Trp1)-(TM)''-(TM)'-(Ms2)-(Trp2)_Design10] | 44.4 nM | 78.5 nM |  |  | 68.5 nM
9 | UUGCAUAUCUUGGAUACCAGCACAUGAGGAUCACCCAUGUCCGCGGGAUAGCUCCAGAUGUGCCCUUGGCAGCCACAUGCACUUG [Quinzama] | 10.9 nM | 18.4 nM | 10.7 nM |  | 
10 | CCUAUGCAGUCGGCCGCCACUGAGUCCUCAAUAAUAAAUUAAUAAACAUGAGGAUCACCCAUGUACAGGACCGGGACUGUAUAGG [Ex Tryptophan B 12] | 165 nM | 324 nM |  |  | 441 nM
11 | AUAACUGUAAUAAACCGCAGGCUAGUGGAAGGAGCGCGGAAUAACGCAGGUAGGUCGCCACAAACAUGAGGAUCACCCAUGUGGC [SSAA NP+V+V2 #6] | 16 nM | 21.6 nM | 19.6 nM | 16 nM | 20.7 nM
12 | AGCACUGUGACGGCCGCCACUACAUAAUAGGGUGGUCAGGUUCAUAUACAUGAGGAUCACCCAUGUAGGACCGGGUCUCAGUGCA [Omei Trp Exc B A v6] | 8.68 nM | 12.7 nM | 9.03 nM | 10.6 nM | 12.2 nM
13 | AUAACACAUGAGGAUCACCCAUGUAAGGAUACCAGUUUCUGAUUAAACCCUUGGCAGCCUAGAGAUAGUCAUGUAAUAACGGCGA [theeternabot_sameState_MS2_Theo_A_19] | 12.4 nM | 18.1 nM | 12.2 nM |  | 
14 | AUCAUGGCCAUCGAUACCAGCUACAUGAGGAUCACCCAUGUAAACGGCGCGGUGAGAUGUAGCCCUUGGCAGCGAAGGGUCAAGG [Beonrexe] | 16.4 nM | 49.2 nM | 19.6 nM | 16.8 nM | 64 nM
15 | GCUACAUGAGGAUCACCCAUGUGUACUGAAGGAGCGGCGGAAACGCCAGGUAGGUCGCAGUAUGUGGCUCUGGGCACGAGAAAGC [SSAA NP+V+V2 #2] | 36.6 nM | 28.3 nM | 34.3 nM | 25.3 nM | 72.9 nM
16 | CUAAGAGCGGCGGCCGCCACUGGUAACCGAGAGGAGGAGCUUCUGAACAUGAGGAUCACCCAUGUCAGGACCGGGUCGUCUUAGA [Same State - Tryptophan B] | 15.5 nM | 18.5 nM | 16.6 nM | 13.8 nM | 14.9 nM
17 | AACAUGAGGAUCACCCAUGUCUGAACUGAAGGAGCGCUAAAUAAGGCAGGUAGGUCGCGGAAUUUUAUAUAUAUAUAUAUAUAGG [9.D] | 28.7 nM | 31.9 nM | 25 nM | 28 nM | 19.8 nM
18 | GACAAUAAUUCAACAAUCAAAAUAGUGGGACGAGGACCGGUACGGCCGCCACUCGCUGAAGCACAUGAGGAUCACCCAUGUCUAA [theeternabot_exclusion_MS2_Trp_A_47] | 14.8 nM | 19.8 nM |  |  | 18.7 nM
19 | GCUGCCGUCGGUGAAAACUCCCAUGCAGAUACCAGCGCAUUCCGCCGCCCUUGGCAGCUGCAUACAUGAGGAUCACCCAUGUGUU [theeternabot_exclusion_MS2_Theo_A_48] | 41.4 nM | 161 nM | 77.3 nM |  | 

Row | Sequence | apparent KD of MS2 coat protein (input ligand: arginine 13.2 mM) | apparent KD of MS2 coat protein [1] | apparent KD of MS2 coat protein [2] | apparent KD of MS2 coat protein (input ligand: none) | apparent KD of MS2 coat protein [3]
20 | GCGUUCUCUGCGGCCGCCACUCAAGGAGCUACAUAGCUCCUAGACAUGAGGAUCACCCAUGUGGCGAGGACCGGGUAGAUCCUUA [Same State Typptophan B GF7] | 76.3 nM | 359 nM |  |  | 337 nM
21 | UGAUCCUGCAGGGAUACCAGCGCCGCUAGAUAACUAUGCACAUGAGGAUCACCCAUGUAACGCCCUUGGCAGCCCAACUAAAGGG [Same State Theophylline B GF21] | 28.9 nM | 41 nM | 35.2 nM | 39.9 nM | 26.7 nM
22 | AUCUACGUGGGUGAUACCAGCUGGUUAGUACACAUGAGGAUCACCCAUGUGCAGGCAGGCAGCCCUUGGCAGCACCGCAGUGGCU [theeternabot_sameState_MS2_Theo_B_36] | 42.8 nM | 221 nM | 60.9 nM |  | 
23 | AACAGGGUCUGAAGGAGCGCGAUCACAUGAGGAUCACCCAUGUGAAAUGGUAGAUGAUACUCGCAGGUAGGUCGCAGUACUUGAC [Same State Arginine B GF 15] | 54.2 nM | 127 nM | 28.4 nM | 33.6 nM | 82.4 nM
24 | CUACAUUUGUAGAAACCGGUCAACAAUAAUCGAGGACCGGUACGGCCGCCACUCGUAUAAUUUAUUACAUGAGGAUCACCCAUGU [Tryptophan A 2] | 13.6 nM | 16.7 nM |  |  | 15.4 nM
25 | UUCAGUACAACAGAUACCAGACAGUACUCUAAAUUGCAACAUGAGGAUCACCCAUGUAUAGUCCCUUGGCAGCUGUAAUGGGUGA [Theo B SS s2] | 150 nM | 159 nM | 70.8 nM |  | 
26 | AACAUGAGGAUCACCCAUGUCGGGCCGGAGCGAGGACCGGUACGGCCGCCACUCGAGACAUGAGGAUCACCCAUGUAGGGCGAAA [Exclusion Tryptophan A GF21] | 61.5 nM | 141 nM | 186 nM | 116 nM | 189 nM
27 | UACAUGAGGAUCACCCAUGUCCCAUGUGAACGAGGACCGGUACGGCCGCCACUCGAAUAAGGCGGCACAUGAGGAUCACCCACAU [AstrosSSTry#2] | 283 nM | 352 nM |  |  | 399 nM
28 | AUAUGAUCAUAGGAUACCAGAAAUGGUAUUCCUUUAUUUCUUACAUGAGGAUCACCCAUGUUCCCUUGGCAGCUUAUGAUCAUAU [ETHB #4] | 79.3 nM | 169 nM | 107 nM |  | 
29 | GCGUUCUCUGCGGCCGCCACUCAAGGAGCUACAUAGCUCCUAGACAUGAGGAUCACCCAUGUCGCGAGGACCGGGUAGAUCCUUA [Same State Typptophan B GF8] | 116 nM | 288 nM | 120 nM | 159 nM | 360 nM
30 | CGCGGACCACCUGAUACCAGCGCAGUCAUGCAUGAACCCAACAUGAGGAUCACCCAUGUACGCCCUUGGCAGCAGGGAAAAGUCG [theeternabot_exclusion_MS2_Theo_B_8] | 76.4 nM | 223 nM | 163 nM |  | 
31 | UCUCACAUGAGGAUCACCCAUGUGUGCGGUCGAGGACCGGUACGGCCGCCACUCGAAUCCUUCCGCGAGAAGAUUGUACGACGGC [theeternabot_sameState_MS2_Trp_A_38] | 28.3 nM | 74.4 nM |  |  | 99.9 nM
32 | GGUCACCUAUCCUCAUUGGUGACCCUGGAAGGAGCGAGCGAGAGCUCAGGUAGGUCGCCAGAACAUGAGGAUCACCCAUGUAAUA [(A)''-(M)'-(A)'(Arg1)-(Arg2)-(M1)-(M2)_Design12] | 43.4 nM | 120 nM | 70.1 nM | 94.9 nM | 111 nM
33 | UACUUGCUGACGGCCGCCACUAGUACAUGAGGAUCACCCAUGUACGGUCGCCCGGUGUGAUCCACUAGGACCGGGUCAGCAAGAU [(Trp1)-(Ms2)-(T)'-(M)'-(Trp2)_Design24] | 38.4 nM | 42.9 nM |  |  | 48.5 nM
34 | CCUAUGCAGUCGGCCGCCACUGAACAUGAGGAUCACCCAUGUAACGGAAACGAAGAUCCUGAAAUCAGGACCGGGACUGUAUAGG [Ex Tryptophan B 3] | 92.6 nM | 221 nM | 382 nM | 154 nM | 185 nM
35 | GUCCACAUGAGGAUCACCCAUGUAAGUGGGCGAGGACCGGUACGGCCGCCACUCGACAUGUUGACGAAAAGUCAGCAUGAGGACA [#SwitchBubble 3 #GuTurnoff #Tail] | 44.1 nM | 154 nM | 101 nM | 108 nM | 114 nM
36 | ACAUGAAGAACAGCGGUGGGCGCGCUCGAUACCAGUAUUUUAAACUACCCUUGGCAGCGACAUGAGGAUCACCCAUGUGAGAUGA [XTheo A #6] | 16.9 nM | 21.8 nM | 19.5 nM |  | 
37 | GGUACAUGAGGAUCACCCAUGUGUCAUGAUACCAGACAUGAAAAUGUCCCUUGGCAGCAUGCCUGAUGGCCGCGUUUAGCGGCCG [Liskovec] | 15.8 nM | 19.5 nM | 16.2 nM | 15.7 nM | 20.7 nM
38 | GGACUAACCUGAAGGAGCGACACGCAGAAACUGCAAAUUCCUCCACACGAGGAUCACCCGUGUCAGGUAGGUCGCAGGUUAGUCG [ArgBX 28] | 19 nM | 25.7 nM | 19.2 nM | 20.2 nM | 21.6 nM

Reference: the supplement of paper PMC9170038
